Test system: Bacillus subtilis
Assay: cleaved RNA product abundance (RNA/gDNA barcode ratio) relative to median wild-type variant (ratio to wild type); higher = more accumulation of the downstream cleavage product
Conditions: cleavage site: cggR-gapA (positions -7 to +36 mutated)
In short: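 Truncated aprE or tetM reporter mRNAs with barcoded RNase Y cleavage-site windows, mutagenized from oligos at a 9% error rate, sat in the B. subtilis chromosome. Cells grew in LB at 37°C from OD600 0.0003 to 0.3. Gel-selected cleaved RNA was reverse transcribed and its barcodes sequenced with those from genomic DNA, collapsing by UMI. Cleaved product abundance equals the RNA:gDNA barcode ratio per construct over the median construct with the unmutated site.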

[1] = experiment (reporter, strain, medium): exp 4a: truncated aprE reporter, strain BJT201 with 2% xylose (RNase J1 expressed)
[2] = experiment (reporter, strain, medium): exp 2b: truncated aprE reporter, strain BJT200
[3] = experiment (reporter, strain, medium): exp 6: tetM reporter, strain 168

Sequence	cleaved RNA product abundance [1]	cleaved RNA product abundance [2]	cleaved RNA product abundance [3]
ACAGACGAAGGAGCCGCAAAGAAGTTATTAAGGGTTGAATAATCTCTCAATATAAATATCTCTCACTTATTTAAA	0.244	–	–
ACAGACGAAGGAGCCGCAAAGAAGTTATTAAGGGTTGAATAATTCCTCAATATAAATATCTCTCACTTATTTAAA	0.1	–	–
ACAGACGAAGGAGCCGCAAAGAAGTTATTAAGGGTTGAATCATCCCTCAATATAAATATCTCTCACTTATTTAAA	–	0.5	–
ACAGACGAAGGAGCCGCAAAGAAGTTATTAAGGGTTGAATGATCCCTCAATATAAATATCTCTCACTTATTTAAA	–	0.298	–
ACAGACGAAGGAGCCGCAAAGAAGTTATTAAGGGTTGAGTAATCCCTCAATATAAATATCTCTCACTTATTTAAA	0.375	–	–
ACAGACGAAGGAGCCGCAAAGAAGTTATTAAGGGTTGATTAATCCCTCAATATAAATATCTCTCACTTATTTAAA	0.409	0.287	–
ACAGACGAAGGAGCCGCAAAGAAGTTATTAAGGGTTGTATAATCCCTCAATATAAATATCTCTCACTTATTTAAA	0.309	–	–
ACAGACGAAGGAGCCGCAAAGAAGTTATTAAGGGTTTAATAATCCCTCAATATAAATATCTCTCACTTATTTAAA	0.667	0.63	–
ACAGACGAAGGAGCCGCAAAGAAGTTATTAAGGTAAGAATAATCCCTCAATATAAATATCTCTCACTTATTTAAA	0.0843	–	–
ACAGACGAAGGAGCCGCAAAGAAGTTATTAAGGTACGAATAATCCCTCAATATAAATATCTCTCACTTATTTAAA	0.106	0.0971	–
ACAGACGAAGGAGCCGCAAAGAAGTTATTAAGGTAGGAATAATCCCTCAATATAAATATCTCTCACTTATTTAAA	0.159	0.145	–
ACAGACGAAGGAGCCGCAAAGAAGTTATTAAGGTATAAATAATCCCTCAATATAAATATCTCTCACTTATTTAAA	0.112	0.0876	–
ACAGACGAAGGAGCCGCAAAGAAGTTATTAAGGTATAAATAATCCCTCAATATAAATGTCTCTCACTTATTTAAA	0.11	–	–
ACAGACGAAGGAGCCGCAAAGAAGTTATTAAGGTATCAATAATCCCTCAATATAAATATCTCTCACTTATTTAAA	0.125	0.106	–
ACAGACGAAGGAGCCGCAAAGAAGTTATTAAGGTATGAAAAATCCCTCAATATAAATATCTCTCACTTATTTAAA	0.145	0.0949	–
ACAGACGAAGGAGCCGCAAAGAAGTTATTAAGGTATGAATAAACCCTCAATATAAATATCTCTCACTTATTTAAA	0.124	0.0972	–
ACAGACGAAGGAGCCGCAAAGAAGTTATTAAGGTATGAATAACCCCTCAATATAAATATCTCTCACTTATTTAAA	0.0618	0.0833	–
ACAGACGAAGGAGCCGCAAAGAAGTTATTAAGGTATGAATAAGCCCTCAATATAAATATCTCTCACTTATTTAAA	0.13	–	–
ACAGACGAAGGAGCCGCAAAGAAGTTATTAAGGTATGAATAATACCTCAATATAAATATCTCTCACTTATTTAAA	1.16	1	–
ACAGACGAAGGAGCCGCAAAGAAGTTATTAAGGTATGAATAATCACTCAATATAAATATCTCTCACTTATTTAAA	0.142	–	–

Sequence	cleaved RNA product abundance [1]	cleaved RNA product abundance [2]	cleaved RNA product abundance [3]
ACAGACGAAGGAGCCGCAAAGAAGTTATTAAGGTATGAATAATCCATCAATATAAATATCTCTCACTTATTTAAA	0.145	0.125	–
ACAGACGAAGGAGCCGCAAAGAAGTTATTAAGGTATGAATAATCCCACAATATAAATATCTCTCACTTATTTAAA	0.0978	0.0792	–
ACAGACGAAGGAGCCGCAAAGAAGTTATTAAGGTATGAATAATCCCCCAATATAAATATCTCTCACTTATTTAAA	0.141	–	–
ACAGACGAAGGAGCCGCAAAGAAGTTATTAAGGTATGAATAATCCCGCAATATAAATATCTCTCACTTATTTAAA	0.0533	–	–
ACAGACGAAGGAGCCGCAAAGAAGTTATTAAGGTATGAATAATCCCTAAATATAAATATCTCTCACTTATTTAAA	0.168	0.109	–
ACAGACGAAGGAGCCGCAAAGAAGTTATTAAGGTATGAATAATCCCTCAAAATAAATATCTCTCACTTATTTAAA	0.115	0.108	–
ACAGACGAAGGAGCCGCAAAGAAGTTATTAAGGTATGAATAATCCCTCAACATAAATATCTCTCACTTATTTAAA	0.11	–	–
ACAGACGAAGGAGCCGCAAAGAAGTTATTAAGGTATGAATAATCCCTCAAGATAAATATCTCTCACTTATTTAAA	0.151	0.111	–
ACAGACGAAGGAGCCGCAAAGAAGTTATTAAGGTATGAATAATCCCTCAATAAAAATATCTCTCACTTATTTAAA	0.0613	0.119	–
ACAGACGAAGGAGCCGCAAAGAAGTTATTAAGGTATGAATAATCCCTCAATACAAATATCTCTCACTTATTTAAA	–	0.0986	–
ACAGACGAAGGAGCCGCAAAGAAGTTATTAAGGTATGAATAATCCCTCAATAGAAATATCTCTCACTTATTTAAA	0.0725	–	–
ACAGACGAAGGAGCCGCAAAGAAGTTATTAAGGTATGAATAATCCCTCAATATAAAAATCTCTCACTTATTTAAA	0.153	0.107	–
ACAGACGAAGGAGCCGCAAAGAAGTTATTAAGGTATGAATAATCCCTCAATATAAACATCTCTCACTTATTTAAA	0.124	–	–
ACAGACGAAGGAGCCGCAAAGAAGTTATTAAGGTATGAATAATCCCTCAATATAAATATCTCTCACTTATTTAAA	0.142	0.107	0.127
ACAGACGAAGGAGCCGCAAAGAAGTTATTAAGGTATGAATAATCCCTCAATATAAATATTTCTCACTTATTTAAA	0.121	–	–
ACAGACGAAGGAGCCGCAAAGAAGTTATTAAGGTATGAATAATCCCTCAATATAAATCTCTCTCACTTATTTAAA	–	0.0874	–
ACAGACGAAGGAGCCGCAAAGAAGTTATTAAGGTATGAATAATCCCTCAATATAAATGTCTCTCACTTATTTAAA	0.107	–	–
ACAGACGAAGGAGCCGCAAAGAAGTTATTAAGGTATGAATAATCCCTCAATATAAATTTCTCTCACTTATTTAAA	0.17	–	–
ACAGACGAAGGAGCCGCAAAGAAGTTATTAAGGTATGAATAATCCCTCAATATAACTATCTCTCACTTATTTAAA	0.102	–	–
ACAGACGAAGGAGCCGCAAAGAAGTTATTAAGGTATGAATAATCCCTCAATATAATTATCTCTCACTTATTTAAA	0.0923	–	–

Sequence	cleaved RNA product abundance [1]	cleaved RNA product abundance [2]	cleaved RNA product abundance [3]
ACAGACGAAGGAGCCGCAAAGAAGTTATTAAGGTATGAATAATCCCTCAATATAGATATCTCTCACTTATTTAAA	0.08	–	–
ACAGACGAAGGAGCCGCAAAGAAGTTATTAAGGTATGAATAATCCCTCAATATATATATCTCTCACTTATTTAAA	0.0867	0.121	–
ACAGACGAAGGAGCCGCAAAGAAGTTATTAAGGTATGAATAATCCCTCAATATTAATATCTCTCACTTATTTAAA	0.0645	–	–
ACAGACGAAGGAGCCGCAAAGAAGTTATTAAGGTATGAATAATCCCTCAATCTAAATATCTCTCACTTATTTAAA	0.0855	–	–
ACAGACGAAGGAGCCGCAAAGAAGTTATTAAGGTATGAATAATCCCTCAATGTAAATATCTCTCACTTATTTAAA	0.0511	0.094	–
ACAGACGAAGGAGCCGCAAAGAAGTTATTAAGGTATGAATAATCCCTCAATTTAAATATCTCTCACTTATTTAAA	0.0555	0.0856	–
ACAGACGAAGGAGCCGCAAAGAAGTTATTAAGGTATGAATAATCCCTCAGTATAAATATCTCTCACTTATTTAAA	0.1	–	–
ACAGACGAAGGAGCCGCAAAGAAGTTATTAAGGTATGAATAATCCCTCATTATAAATATCTCTCACTTATTTAAA	0.107	–	–
ACAGACGAAGGAGCCGCAAAGAAGTTATTAAGGTATGAATAATCCCTCCATATAAATATCTCTCACTTATTTAAA	0.0967	–	–
ACAGACGAAGGAGCCGCAAAGAAGTTATTAAGGTATGAATAATCCCTCGATATAAATATCTCTCACTTATTTAAA	0.0744	0.0823	–
ACAGACGAAGGAGCCGCAAAGAAGTTATTAAGGTATGAATAATCCCTCTATATAAATATCTCTCACTTATTTAAA	0.11	0.0999	–
ACAGACGAAGGAGCCGCAAAGAAGTTATTAAGGTATGAATAATCCCTGAATATAAATATCTCTCACTTATTTAAA	0.0951	0.0773	–
ACAGACGAAGGAGCCGCAAAGAAGTTATTAAGGTATGAATAATCCCTTAATATAAATATCTCTCACTTATTTAAA	0.461	0.709	0.236
ACAGACGAAGGAGCCGCAAAGAAGTTATTAAGGTATGAATAATCCGTCAATATAAATATCTCTCACTTATTTAAA	0.0909	0.0647	0.0676
ACAGACGAAGGAGCCGCAAAGAAGTTATTAAGGTATGAATAATCCTTCAATATAAATATCTCTCACTTATTTAAA	0.126	0.145	–
ACAGACGAAGGAGCCGCAAAGAAGTTATTAAGGTATGAATAATCGCTCAATATAAATATCTCTCACTTATTTAAA	0.0909	–	–
ACAGACGAAGGAGCCGCAAAGAAGTTATTAAGGTATGAATAATCTCTCAATATAAATATCTCTCACTTATTTAAA	0.162	–	–
ACAGACGAAGGAGCCGCAAAGAAGTTATTAAGGTATGAATAATTCCTCAATATAAATATCTCTCACTTATTTAAA	0.156	0.0842	–

Reference: the supplement of paper PMC11780869
